From the Human Domainome abundance scans (Beltran et al. 2025)
± gives the uncertainty stated by the source.

B1: Death-inducer obliterator 1, residues 263 to 321; numbered along this chain, Q9BTC0 (parent)
chain: GYDPNALYCICRQPHNNRFMICCDRCEEWFHGDCVGISEARGRLLERNGEDYICPNCTI

Variants of: B1
Assay: abundance fitness (aPCA) (normalised: wild type 0, dead -1); higher = more abundant; growth selection in yeast, the domain comes from the species named
Settings: Homo sapiens

| Variant | abundance fitness |
| --- | --- |
| GYDPNALYCICRQPHNNRFMICCDRCEEWGHGDCVGISEARGRLLERNGEDYICPNCTI [F30G] | -0.269 ± 0.14 |
| GYDPNALYCICRQPHNNRFMICCDRCEEWYHGDCVGISEARGRLLERNGEDYICPNCTI [F30Y] | -0.041 ± 0.093 |
| GYDPNALYCICRQPHNNRFMICCDRCEEWDHGDCVGISEARGRLLERNGEDYICPNCTI [F30D] | -0.749 ± 0.13 |
| GYDPNALYCICRQPHNNRFMICCDRCEEWHHGDCVGISEARGRLLERNGEDYICPNCTI [F30H] | 0.004 ± 0.15 |
| GYDPNALYCICRQPHNNRFMICCDRCEEWNHGDCVGISEARGRLLERNGEDYICPNCTI [F30N] | -0.013 ± 0.087 |
| GYDPNALYCICRQPHNNRFMICCDRCEEWSHGDCVGISEARGRLLERNGEDYICPNCTI [F30S] | -0.266 ± 0.054 |
| GYDPNALYCICRQPHNNRFMICCDRCEEWLHGDCVGISEARGRLLERNGEDYICPNCTI [F30L] | -0.006 ± 0.051 |
| GYDPNALYCICRQPHNNRFMICCDRCEEWRHGDCVGISEARGRLLERNGEDYICPNCTI [F30R] | -0.306 ± 0.086 |
| GYDPNALYCICRQPHNNRFMICCDRCEEWQHGDCVGISEARGRLLERNGEDYICPNCTI [F30Q] | -0.471 ± 0.15 |
| GYDPNALYCICRQPHNNRFMICCDRCEEWTHGDCVGISEARGRLLERNGEDYICPNCTI [F30T] | -0.38 ± 0.092 |
| GYDPNALYCICRQPHNNRFMICCDRCEEWWHGDCVGISEARGRLLERNGEDYICPNCTI [F30W] | -0.325 ± 0.12 |
| GYDPNALYCICRQPHNNRFMICCDRCEEWPHGDCVGISEARGRLLERNGEDYICPNCTI [F30P] | -0.711 ± 0.17 |
| GYDPNALYCICRQPHNNRFMICCDRCEEWKHGDCVGISEARGRLLERNGEDYICPNCTI [F30K] | -0.349 ± 0.065 |
| GYDPNALYCICRQPHNNRFMICCDRCEEWEHGDCVGISEARGRLLERNGEDYICPNCTI [F30E] | -0.954 ± 0.34 |
| GYDPNALYCICRQPHNNRFMICCDRCEEWIHGDCVGISEARGRLLERNGEDYICPNCTI [F30I] | -0.289 ± 0.1 |
| GYDPNALYCICRQPHNNRFMICCDRCEEWMHGDCVGISEARGRLLERNGEDYICPNCTI [F30M] | 0.013 ± 0.048 |
| GYDPNALYCICRQPHNNRFMICCDRCEEWVHGDCVGISEARGRLLERNGEDYICPNCTI [F30V] | -0.327 ± 0.12 |
| GYDPNALYCICRQPHNNRFMICCDRCEEWFFGDCVGISEARGRLLERNGEDYICPNCTI [H31F] | -0.559 ± 0.12 |
| GYDPNALYCICRQPHNNRFMICCDRCEEWFYGDCVGISEARGRLLERNGEDYICPNCTI [H31Y] | -0.732 ± 0.17 |
| GYDPNALYCICRQPHNNRFMICCDRCEEWFVGDCVGISEARGRLLERNGEDYICPNCTI [H31V] | -0.664 ± 0.093 |
| GYDPNALYCICRQPHNNRFMICCDRCEEWFAGDCVGISEARGRLLERNGEDYICPNCTI [H31A] | -0.636 ± 0.1 |
| GYDPNALYCICRQPHNNRFMICCDRCEEWFCGDCVGISEARGRLLERNGEDYICPNCTI [H31C] | -0.282 ± 0.075 |
| GYDPNALYCICRQPHNNRFMICCDRCEEWFIGDCVGISEARGRLLERNGEDYICPNCTI [H31I] | -0.67 ± 0.096 |

| Variant | abundance fitness |
| --- | --- |
| GYDPNALYCICRQPHNNRFMICCDRCEEWFQGDCVGISEARGRLLERNGEDYICPNCTI [H31Q] | -0.782 ± 0.29 |
| GYDPNALYCICRQPHNNRFMICCDRCEEWFSGDCVGISEARGRLLERNGEDYICPNCTI [H31S] | -0.776 ± 0.09 |
| GYDPNALYCICRQPHNNRFMICCDRCEEWFDGDCVGISEARGRLLERNGEDYICPNCTI [H31D] | -0.422 ± 0.12 |
| GYDPNALYCICRQPHNNRFMICCDRCEEWFKGDCVGISEARGRLLERNGEDYICPNCTI [H31K] | -0.967 ± 0.26 |
| GYDPNALYCICRQPHNNRFMICCDRCEEWFEGDCVGISEARGRLLERNGEDYICPNCTI [H31E] | -0.923 ± 0.22 |
| GYDPNALYCICRQPHNNRFMICCDRCEEWFTGDCVGISEARGRLLERNGEDYICPNCTI [H31T] | -0.956 ± 0.14 |
| GYDPNALYCICRQPHNNRFMICCDRCEEWFLGDCVGISEARGRLLERNGEDYICPNCTI [H31L] | -0.628 ± 0.088 |
| GYDPNALYCICRQPHNNRFMICCDRCEEWFRGDCVGISEARGRLLERNGEDYICPNCTI [H31R] | -0.584 ± 0.1 |
| GYDPNALYCICRQPHNNRFMICCDRCEEWFWGDCVGISEARGRLLERNGEDYICPNCTI [H31W] | -0.507 ± 0.11 |
| GYDPNALYCICRQPHNNRFMICCDRCEEWFMGDCVGISEARGRLLERNGEDYICPNCTI [H31M] | -0.667 ± 0.11 |
| GYDPNALYCICRQPHNNRFMICCDRCEEWFNGDCVGISEARGRLLERNGEDYICPNCTI [H31N] | -0.765 ± 0.14 |
| GYDPNALYCICRQPHNNRFMICCDRCEEWFPGDCVGISEARGRLLERNGEDYICPNCTI [H31P] | -1.05 ± 0.22 |
| GYDPNALYCICRQPHNNRFMICCDRCEEWFHGDWVGISEARGRLLERNGEDYICPNCTI [C34W] | -1.03 ± 0.2 |
| GYDPNALYCICRQPHNNRFMICCDRCEEWFHGDFVGISEARGRLLERNGEDYICPNCTI [C34F] | -1.12 ± 0.17 |
| GYDPNALYCICRQPHNNRFMICCDRCEEWFHGDSVGISEARGRLLERNGEDYICPNCTI [C34S] | -0.867 ± 0.11 |
| GYDPNALYCICRQPHNNRFMICCDRCEEWFHGDEVGISEARGRLLERNGEDYICPNCTI [C34E] | -0.608 ± 0.12 |
| GYDPNALYCICRQPHNNRFMICCDRCEEWFHGDGVGISEARGRLLERNGEDYICPNCTI [C34G] | -0.726 ± 0.28 |
| GYDPNALYCICRQPHNNRFMICCDRCEEWFHGDKVGISEARGRLLERNGEDYICPNCTI [C34K] | -0.763 ± 0.14 |
| GYDPNALYCICRQPHNNRFMICCDRCEEWFHGDHVGISEARGRLLERNGEDYICPNCTI [C34H] | -0.368 ± 0.066 |
| GYDPNALYCICRQPHNNRFMICCDRCEEWFHGDMVGISEARGRLLERNGEDYICPNCTI [C34M] | -0.831 ± 0.14 |
| GYDPNALYCICRQPHNNRFMICCDRCEEWFHGDDVGISEARGRLLERNGEDYICPNCTI [C34D] | -0.376 ± 0.16 |
| GYDPNALYCICRQPHNNRFMICCDRCEEWFHGDRVGISEARGRLLERNGEDYICPNCTI [C34R] | -0.697 ± 0.089 |
